Reference: publication PMC7961048 (2021)
Read-outs that look alike come from different tables or passages of the source. Non-standard residues stand in square brackets, D forms with d. No end group written: not given here. *: point of attachment. Biotin = O=C1N[C@H]2[C@H](CS[C@H]2CCCCC(=O)*)N1; pT = C[C@@H](OP(=O)(O)O)[C@H](N)C(=O)O; ttds = NCCCOCCOCCOCCCNC(=O)CCC(=O)*

T1: full-length human 14-3-3η fused to the C terminus of MBP (human, UniProt Q04917 1-246)
T1 chain: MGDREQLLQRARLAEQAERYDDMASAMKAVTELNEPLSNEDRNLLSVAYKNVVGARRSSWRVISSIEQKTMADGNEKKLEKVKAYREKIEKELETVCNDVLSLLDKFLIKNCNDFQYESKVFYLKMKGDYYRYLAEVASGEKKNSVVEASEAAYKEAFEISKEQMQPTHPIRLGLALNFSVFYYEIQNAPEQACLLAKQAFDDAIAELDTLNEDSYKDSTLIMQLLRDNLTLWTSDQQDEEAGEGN

T2: full-length human 14-3-3β fused to the C terminus of MBP (human, UniProt P31946 1-246)
T2 chain: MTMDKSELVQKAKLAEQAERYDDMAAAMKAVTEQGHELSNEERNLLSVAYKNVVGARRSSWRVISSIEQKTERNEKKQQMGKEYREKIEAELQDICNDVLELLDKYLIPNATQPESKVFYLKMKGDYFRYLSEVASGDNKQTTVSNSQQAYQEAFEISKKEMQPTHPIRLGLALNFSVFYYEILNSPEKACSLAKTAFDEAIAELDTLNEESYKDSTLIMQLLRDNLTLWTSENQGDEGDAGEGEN

T3: full-length human 14-3-3γ fused to the C terminus of MBP (human, UniProt P61981 1-247)
T3 chain: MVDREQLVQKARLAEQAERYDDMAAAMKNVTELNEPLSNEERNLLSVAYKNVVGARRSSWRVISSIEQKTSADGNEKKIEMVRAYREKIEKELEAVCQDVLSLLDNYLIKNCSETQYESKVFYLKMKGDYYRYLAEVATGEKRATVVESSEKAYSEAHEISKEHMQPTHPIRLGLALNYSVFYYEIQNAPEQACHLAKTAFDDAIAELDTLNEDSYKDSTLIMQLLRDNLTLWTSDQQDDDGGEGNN

T4: full-length human 14-3-3ζ fused to the C terminus of MBP (human, UniProt P63104 1-245)
T4 chain: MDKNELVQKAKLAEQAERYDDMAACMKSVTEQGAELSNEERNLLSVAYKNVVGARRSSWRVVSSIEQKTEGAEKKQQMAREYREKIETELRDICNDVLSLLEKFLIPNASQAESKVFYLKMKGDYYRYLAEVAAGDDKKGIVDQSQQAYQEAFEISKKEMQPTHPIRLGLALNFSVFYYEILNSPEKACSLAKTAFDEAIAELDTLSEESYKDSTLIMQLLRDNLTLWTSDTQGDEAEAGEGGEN

T5: full-length human 14-3-3ε fused to the C terminus of MBP (human, UniProt P62258 1-255)
T5 chain: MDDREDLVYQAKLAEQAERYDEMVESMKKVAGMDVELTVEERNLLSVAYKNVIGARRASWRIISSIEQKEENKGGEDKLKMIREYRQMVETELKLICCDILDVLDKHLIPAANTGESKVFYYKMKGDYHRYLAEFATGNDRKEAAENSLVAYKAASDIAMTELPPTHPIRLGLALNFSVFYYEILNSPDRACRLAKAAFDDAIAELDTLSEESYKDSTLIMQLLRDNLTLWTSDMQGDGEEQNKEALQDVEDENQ

T6: full-length human 14-3-3σ fused to the C terminus of MBP (human, UniProt P31947 1-248)
T6 chain: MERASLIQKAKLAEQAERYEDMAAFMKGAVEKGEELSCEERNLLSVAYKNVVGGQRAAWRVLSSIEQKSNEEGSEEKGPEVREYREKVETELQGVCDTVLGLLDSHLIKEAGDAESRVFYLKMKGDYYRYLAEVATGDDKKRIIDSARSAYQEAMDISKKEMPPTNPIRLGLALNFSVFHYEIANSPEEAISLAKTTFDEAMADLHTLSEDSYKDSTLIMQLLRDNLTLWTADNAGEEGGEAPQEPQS

T7: full-length human 14-3-3τ fused to the C terminus of MBP (human, UniProt P27348 1-245)
T7 chain: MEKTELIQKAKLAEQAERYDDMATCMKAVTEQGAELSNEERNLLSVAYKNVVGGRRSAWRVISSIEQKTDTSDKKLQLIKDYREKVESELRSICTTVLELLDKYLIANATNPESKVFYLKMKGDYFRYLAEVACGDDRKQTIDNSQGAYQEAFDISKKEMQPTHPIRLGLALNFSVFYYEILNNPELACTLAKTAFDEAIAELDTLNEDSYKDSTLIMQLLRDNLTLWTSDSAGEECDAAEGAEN


Assays:
[1] = biological target: T1, full-length human 14-3-3η fused to the …; experiment: FP
[2] = biological target: T2, full-length human 14-3-3β fused to the …; experiment: FP
[3] = biological target: T3, full-length human 14-3-3γ fused to the …; experiment: FP
[4] = biological target: T4, full-length human 14-3-3ζ fused to the …; experiment: FP
[5] = biological target: T5, full-length human 14-3-3ε fused to the …; experiment: FP
[6] = biological target: T6, full-length human 14-3-3σ fused to the …; experiment: FP
[7] = biological target: T7, full-length human 14-3-3τ fused to the …; experiment: FP
[8] = biological target: T4, full-length human 14-3-3ζ fused to the …; experiment: FP; with FSC
[9] = biological target: T6, full-length human 14-3-3σ fused to the …; experiment: FP

Binder | Kd [1] [µM] | Kd [2] [µM] | Kd [3] [µM] | Kd [4] [µM] | Kd [5] [µM] | Kd [6] [µM] | Kd [7] [µM] | Kd [8] [µM] | Kd [9] [µM]
{Biotin-ttds}-SSRTRRE[pT]QL [HPV16 E6 phospho-PBM peptide p16E6] | 80.5 | 159 | 37.2 | 73.6 | > 300 | > 300 | 144 |  | 
{Biotin-ttds}-RLQRRRE[pT]QV [HPV18 E6 phospho-PBM peptide p18E6] |  | 42.2 | 11.1 | 22.4 | 101 | 139 | 37.8 | 37.3 | 139
